The text below walks through data of WO2013041865A1.

In test [1] the target is … HLA-A*01 complex (MAGE-3 peptide, soluble biotinylated pHLA). Nature of the test: SPR (BIAcore) method of Example 3. (In general: Surface plasmon resonance follows binding to a sensor surface in real time, without labels.)
For test [2] the target is unchanged. Nature of the test: SPR (BIAcore 3000); biotinylated pHLA on streptavidin chip, soluble TCR injected, 25 C.

B1: reference MAGE-3 TCR (disulfide linked soluble heterodimeric form) (TCR, V domains shown)
V domain 1: KQEVTQIPAALSVPEGENLVLNCSFTDSAIYNLQWFRQDPGKGLTSLLLIQSSQREQTSGRLNASLDKSSGRSTLYIAASQPGDSATYLCAVRPGGAGSYQLTFGKGTKLSVIP
V domain 2: KAGVTQTPRYLIKTRGQQVTLSCSPISGHRSVSWYQQTPGQGLQFLFEYFSETQRNKGNFPGRFSGRQFSNSRSEMNVSTLELGDSALYLCASSPNMADEQYFGPGTRLTVTE
The koff is the first-order rate constant of dissociation. A higher koff goes with a short-lived complex. B1 came in with a koff in test [1] of 0.2 s⁻¹. This molecule gave a T½ (binding half-life) in test [2] of 3 s.
